# Test results: patent US20180155451A1 (published 2018)
# T1: FcγRIIa H (human, UniProt P12318 34-217)
# T1 construct: extracellular domain; also called FcγRIIa type H; 2aH
# T1 sequence (looked up): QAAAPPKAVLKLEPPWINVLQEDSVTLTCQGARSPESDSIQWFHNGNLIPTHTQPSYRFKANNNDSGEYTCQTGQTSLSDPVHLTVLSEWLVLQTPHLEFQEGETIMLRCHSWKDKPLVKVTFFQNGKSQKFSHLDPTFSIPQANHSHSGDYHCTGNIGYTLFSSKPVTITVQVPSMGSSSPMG
# T2: FcγRIIb (human, UniProt P31994 43-217)
# T2 construct: extracellular domain; also called 2b
# T2 sequence (looked up): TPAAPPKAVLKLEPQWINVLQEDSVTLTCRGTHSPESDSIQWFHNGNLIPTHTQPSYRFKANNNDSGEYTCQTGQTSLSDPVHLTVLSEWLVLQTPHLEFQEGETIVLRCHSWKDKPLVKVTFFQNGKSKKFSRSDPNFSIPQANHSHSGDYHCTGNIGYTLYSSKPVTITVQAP
# T3: FcγRIIb extracellular domain with C-terminal His tag (human, UniProt P31994 43-217)
# T3 construct: extracellular domain; Expressed in FreeStyle293 cells; used as analyte in Biacore; also called FcgRIIb; 2b; not shown: C-terminal His tag
# T3 sequence (looked up): T2 sequence (looked up)
# B1: GpH7-A5/GpH7-B3 variant S267_10E/GpL16-k0 (antibody, human IgG1, kappa)
# heavy 1: not shown
# heavy 2: not shown
# light: DIVMTQSPLSLPVTPGEPASISCQASESLVHSNRNTYLHWYLQKPGQSPQLLIYKVSNRFSGVPDRFSGSGSGTDFTLKISRVEAEDVGVYYCSQNTHVPPTFGQGTKVEIERTVAAPSVFIFPPSDEQLKSGTASVVCLLNNFYPREAKVQWKVDNALQSGNSQESVTEQDSKDSTYSLSSTLTLSKADYEKHKVYACEVTHQGLSSPVTKSFNRGEC
# notes: heterodimerized IgG1, mutation in one H chain only; also called He Ab
# B2: GpH7-A5/GpH7-B3 variant V266_20W/GpL16-k0 (antibody, human IgG1, kappa)
# heavy 1: not shown
# heavy 2: not shown
# light: B1 light
# notes: as for B1
# B3: GpH7-A5/GpH7-B3 variant S267_16H/GpL16-k0 (antibody, human IgG1, kappa)
# heavy 1: not shown
# heavy 2: not shown
# light: B1 light
# notes: as for B1
# B4: GpH7-A5/GpH7-B3 variant S267_15Y/GpL16-k0 (antibody, human IgG1, kappa)
# heavy 1: not shown
# heavy 2: not shown
# light: B1 light
# notes: as for B1
# B5: GpH7-A5/GpH7-B3 variant V266_16H/GpL16-k0 (antibody, human IgG1, kappa)
# heavy 1: not shown
# heavy 2: not shown
# light: B1 light
# notes: as for B1
# B6: GpH7-A5/GpH7-B3 variant V266_19Q/GpL16-k0 (antibody, human IgG1, kappa)
# heavy 1: not shown
# heavy 2: not shown
# light: B1 light
# notes: as for B1
# B7: GpH7-A5/GpH7-B3 variant S267_19Q/GpL16-k0 (antibody, human IgG1, kappa)
# heavy 1: not shown
# heavy 2: not shown
# light: B1 light
# notes: as for B1
# B8: GpH7-A5/GpH7-B3 variant S298_08L/GpL16-k0 (antibody, human IgG1, kappa)
# heavy 1: not shown
# heavy 2: not shown
# light: B1 light
# notes: as for B1
# B9: GpH7-A5/GpH7-B3 variant S267_20W/GpL16-k0 (antibody, human IgG1, kappa)
# heavy 1: not shown
# heavy 2: not shown
# light: B1 light
# notes: as for B1
# B10: GpH7-A5/GpH7-B3 variant S267_14T/GpL16-k0 (antibody, human IgG1, kappa)
# heavy 1: not shown
# heavy 2: not shown
# light: B1 light
# notes: as for B1
# B11: GpH7-A5/GpH7-B3 variant Y300_10E/GpL16-k0 (antibody, human IgG1, kappa)
# heavy 1: not shown
# heavy 2: not shown
# light: B1 light
# notes: as for B1
# B12: GpH7-B3 variant L328_03V/GpL16-k0 (Ho Ab) (antibody, human IgG1, kappa)
# heavy: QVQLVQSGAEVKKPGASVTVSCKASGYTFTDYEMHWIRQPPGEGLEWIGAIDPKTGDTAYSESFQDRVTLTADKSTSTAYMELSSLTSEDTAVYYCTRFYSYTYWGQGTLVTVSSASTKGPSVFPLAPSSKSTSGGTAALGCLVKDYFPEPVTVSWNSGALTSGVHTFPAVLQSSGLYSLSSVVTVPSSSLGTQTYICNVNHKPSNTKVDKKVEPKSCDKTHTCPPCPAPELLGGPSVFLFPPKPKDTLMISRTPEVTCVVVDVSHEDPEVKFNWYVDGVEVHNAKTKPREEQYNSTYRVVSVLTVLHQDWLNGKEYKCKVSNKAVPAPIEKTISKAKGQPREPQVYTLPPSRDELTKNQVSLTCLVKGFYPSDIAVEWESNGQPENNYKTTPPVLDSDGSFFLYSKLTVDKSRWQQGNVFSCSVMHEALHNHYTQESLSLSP
# light: B1 light
# notes: Substitution in both H chains; position in EU numbering; also called L328V homodimerized antibody
# B13: GpH7-B3 variant K334_18N/GpL16-k0 (Ho Ab) (antibody, human IgG1, kappa)
# heavy: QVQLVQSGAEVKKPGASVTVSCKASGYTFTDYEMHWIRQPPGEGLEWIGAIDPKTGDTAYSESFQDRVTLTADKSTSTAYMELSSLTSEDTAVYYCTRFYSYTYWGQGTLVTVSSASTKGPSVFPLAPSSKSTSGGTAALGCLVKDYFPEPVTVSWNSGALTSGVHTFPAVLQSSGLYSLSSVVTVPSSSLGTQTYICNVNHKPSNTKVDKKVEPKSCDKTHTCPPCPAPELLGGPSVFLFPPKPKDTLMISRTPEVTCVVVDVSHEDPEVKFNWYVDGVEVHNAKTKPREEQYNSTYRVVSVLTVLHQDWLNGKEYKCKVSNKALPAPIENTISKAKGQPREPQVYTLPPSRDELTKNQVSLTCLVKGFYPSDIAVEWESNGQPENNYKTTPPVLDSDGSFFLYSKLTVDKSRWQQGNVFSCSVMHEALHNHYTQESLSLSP
# light: B1 light
# notes: Substitution in both H chains; position in EU numbering; also called K334N homodimerized antibody
# B14: GpH7-B3 variant S267_14T/GpL16-k0 (Ho Ab) (antibody, human IgG1, kappa)
# heavy: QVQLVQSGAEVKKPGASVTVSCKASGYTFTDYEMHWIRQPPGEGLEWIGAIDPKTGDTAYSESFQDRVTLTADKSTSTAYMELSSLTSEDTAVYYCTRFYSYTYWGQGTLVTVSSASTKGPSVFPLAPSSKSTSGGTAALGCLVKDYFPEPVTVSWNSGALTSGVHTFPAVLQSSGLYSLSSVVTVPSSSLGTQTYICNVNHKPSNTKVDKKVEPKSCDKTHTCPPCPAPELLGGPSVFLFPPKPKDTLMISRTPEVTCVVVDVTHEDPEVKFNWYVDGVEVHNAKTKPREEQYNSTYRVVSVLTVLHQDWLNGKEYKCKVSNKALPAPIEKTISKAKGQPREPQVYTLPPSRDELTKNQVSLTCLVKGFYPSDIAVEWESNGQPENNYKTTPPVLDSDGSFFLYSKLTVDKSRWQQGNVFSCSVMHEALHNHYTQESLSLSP
# light: B1 light
# notes: Substitution in both H chains; position in EU numbering; also called S267T homodimerized antibody
# B15: GpH7-B3 variant S267_09D/GpL16-k0 (Ho Ab) (antibody, human IgG1, kappa)
# heavy: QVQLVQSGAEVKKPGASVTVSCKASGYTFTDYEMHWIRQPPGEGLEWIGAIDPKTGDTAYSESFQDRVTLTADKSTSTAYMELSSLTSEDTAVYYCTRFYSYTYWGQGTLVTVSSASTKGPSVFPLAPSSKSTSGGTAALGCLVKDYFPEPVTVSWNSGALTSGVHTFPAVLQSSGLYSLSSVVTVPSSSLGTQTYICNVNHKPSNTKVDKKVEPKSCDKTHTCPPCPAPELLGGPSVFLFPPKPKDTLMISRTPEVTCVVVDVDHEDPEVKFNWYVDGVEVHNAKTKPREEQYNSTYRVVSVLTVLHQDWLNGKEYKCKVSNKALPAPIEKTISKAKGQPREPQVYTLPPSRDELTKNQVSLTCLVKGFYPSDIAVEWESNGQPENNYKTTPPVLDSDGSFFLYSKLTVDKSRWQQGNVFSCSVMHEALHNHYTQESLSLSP
# light: B1 light
# notes: Substitution in both H chains; position in EU numbering; also called S267D homodimerized antibody
# B16: GpH7-B3 variant T335_04F/GpL16-k0 (Ho Ab) (antibody, human IgG1, kappa)
# heavy: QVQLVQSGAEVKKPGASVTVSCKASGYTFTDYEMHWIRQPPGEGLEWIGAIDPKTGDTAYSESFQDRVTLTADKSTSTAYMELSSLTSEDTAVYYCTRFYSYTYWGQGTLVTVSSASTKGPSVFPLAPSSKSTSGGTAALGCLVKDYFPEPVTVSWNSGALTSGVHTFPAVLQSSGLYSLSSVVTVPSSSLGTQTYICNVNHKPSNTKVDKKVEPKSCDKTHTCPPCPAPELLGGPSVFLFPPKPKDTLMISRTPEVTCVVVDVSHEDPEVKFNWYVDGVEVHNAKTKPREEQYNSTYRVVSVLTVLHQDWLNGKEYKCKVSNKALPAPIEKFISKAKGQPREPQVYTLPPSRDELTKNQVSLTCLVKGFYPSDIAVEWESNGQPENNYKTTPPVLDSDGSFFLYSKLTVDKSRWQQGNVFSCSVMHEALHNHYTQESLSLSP
# light: B1 light
# notes: Substitution in both H chains; position in EU numbering; also called T335F homodimerized antibody
# B17: GpH7-B3 variant K334_15Y/GpL16-k0 (Ho Ab) (antibody, human IgG1, kappa)
# heavy: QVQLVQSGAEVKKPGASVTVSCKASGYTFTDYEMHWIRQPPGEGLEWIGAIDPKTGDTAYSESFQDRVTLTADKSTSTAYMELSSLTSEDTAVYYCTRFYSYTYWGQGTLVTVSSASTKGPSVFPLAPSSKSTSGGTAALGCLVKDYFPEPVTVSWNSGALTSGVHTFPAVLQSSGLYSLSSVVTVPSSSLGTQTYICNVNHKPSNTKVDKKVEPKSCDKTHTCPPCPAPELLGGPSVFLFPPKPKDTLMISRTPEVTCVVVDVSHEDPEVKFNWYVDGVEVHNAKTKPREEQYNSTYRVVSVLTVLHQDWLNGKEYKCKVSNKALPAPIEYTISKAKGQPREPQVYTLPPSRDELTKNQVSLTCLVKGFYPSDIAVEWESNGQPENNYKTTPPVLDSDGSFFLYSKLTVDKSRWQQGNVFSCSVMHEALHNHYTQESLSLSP
# light: B1 light
# notes: Substitution in both H chains; position in EU numbering; also called K334Y homodimerized antibody
# B18: GpH7-B3 variant L328_06M/GpL16-k0 (Ho Ab) (antibody, human IgG1, kappa)
# heavy: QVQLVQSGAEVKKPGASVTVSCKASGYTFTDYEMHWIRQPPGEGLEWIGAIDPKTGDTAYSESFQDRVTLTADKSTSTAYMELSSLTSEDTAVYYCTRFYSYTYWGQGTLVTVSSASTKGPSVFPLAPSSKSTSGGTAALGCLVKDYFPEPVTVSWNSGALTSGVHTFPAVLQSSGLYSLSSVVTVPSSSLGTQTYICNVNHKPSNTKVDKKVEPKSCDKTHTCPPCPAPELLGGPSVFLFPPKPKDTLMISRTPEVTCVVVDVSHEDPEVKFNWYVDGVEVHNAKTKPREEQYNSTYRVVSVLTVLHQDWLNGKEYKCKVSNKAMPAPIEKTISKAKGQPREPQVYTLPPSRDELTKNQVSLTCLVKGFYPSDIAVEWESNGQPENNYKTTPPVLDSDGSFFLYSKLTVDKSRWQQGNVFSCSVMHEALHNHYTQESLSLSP
# light: B1 light
# notes: Substitution in both H chains; position in EU numbering; also called L328M homodimerized antibody
# B19: GpH7-B3 variant S298_08L/GpL16-k0 (Ho Ab) (antibody, human IgG1, kappa)
# heavy: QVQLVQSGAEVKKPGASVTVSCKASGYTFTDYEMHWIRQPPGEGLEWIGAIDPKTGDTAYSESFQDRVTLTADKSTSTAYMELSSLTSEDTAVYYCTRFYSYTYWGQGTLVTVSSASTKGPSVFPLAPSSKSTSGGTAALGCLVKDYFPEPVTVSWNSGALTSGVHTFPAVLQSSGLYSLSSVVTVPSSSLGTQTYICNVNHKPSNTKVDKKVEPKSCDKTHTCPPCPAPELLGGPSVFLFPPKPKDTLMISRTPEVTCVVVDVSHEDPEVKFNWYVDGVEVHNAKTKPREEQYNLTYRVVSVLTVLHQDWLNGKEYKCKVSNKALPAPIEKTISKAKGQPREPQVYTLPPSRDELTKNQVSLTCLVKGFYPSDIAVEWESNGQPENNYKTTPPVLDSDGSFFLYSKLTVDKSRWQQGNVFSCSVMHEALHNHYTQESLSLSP
# light: B1 light
# notes: Substitution in both H chains; position in EU numbering; also called S298L homodimerized antibody
# B20: GpH7-B3 variant T335_08L/GpL16-k0 (Ho Ab) (antibody, human IgG1, kappa)
# heavy: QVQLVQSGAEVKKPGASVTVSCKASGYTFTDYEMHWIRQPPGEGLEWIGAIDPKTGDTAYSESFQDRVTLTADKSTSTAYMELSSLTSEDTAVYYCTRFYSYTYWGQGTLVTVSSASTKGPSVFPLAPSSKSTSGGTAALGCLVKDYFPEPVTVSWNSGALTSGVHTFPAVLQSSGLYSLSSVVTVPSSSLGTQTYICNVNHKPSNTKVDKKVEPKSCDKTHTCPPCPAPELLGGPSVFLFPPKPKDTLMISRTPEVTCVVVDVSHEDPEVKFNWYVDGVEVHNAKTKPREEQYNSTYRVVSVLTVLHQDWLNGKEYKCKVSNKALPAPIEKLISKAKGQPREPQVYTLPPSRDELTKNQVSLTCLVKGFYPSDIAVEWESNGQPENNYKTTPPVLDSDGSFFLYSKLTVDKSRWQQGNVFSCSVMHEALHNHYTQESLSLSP
# light: B1 light
# notes: Substitution in both H chains; position in EU numbering; also called T335L homodimerized antibody
# B21: GpH7-B3 variant S267_07I/GpL16-k0 (Ho Ab) (antibody, human IgG1, kappa)
# heavy: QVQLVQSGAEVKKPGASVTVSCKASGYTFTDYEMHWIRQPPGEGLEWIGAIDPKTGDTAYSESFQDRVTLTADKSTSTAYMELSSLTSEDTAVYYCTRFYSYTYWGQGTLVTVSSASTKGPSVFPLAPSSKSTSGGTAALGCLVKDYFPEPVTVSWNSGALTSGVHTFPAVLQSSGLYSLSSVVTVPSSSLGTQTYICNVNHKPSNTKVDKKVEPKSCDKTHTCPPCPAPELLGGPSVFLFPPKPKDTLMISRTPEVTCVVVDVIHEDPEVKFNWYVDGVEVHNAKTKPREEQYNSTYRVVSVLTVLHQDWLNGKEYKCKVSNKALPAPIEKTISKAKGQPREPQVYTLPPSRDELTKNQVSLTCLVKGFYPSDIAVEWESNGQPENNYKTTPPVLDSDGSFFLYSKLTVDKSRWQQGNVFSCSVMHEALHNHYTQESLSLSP
# light: B1 light
# notes: Substitution in both H chains; position in EU numbering; also called S267I homodimerized antibody
# B22: GpH7-B3 variant S337_09D/GpL16-k0 (Ho Ab) (antibody, human IgG1, kappa)
# heavy: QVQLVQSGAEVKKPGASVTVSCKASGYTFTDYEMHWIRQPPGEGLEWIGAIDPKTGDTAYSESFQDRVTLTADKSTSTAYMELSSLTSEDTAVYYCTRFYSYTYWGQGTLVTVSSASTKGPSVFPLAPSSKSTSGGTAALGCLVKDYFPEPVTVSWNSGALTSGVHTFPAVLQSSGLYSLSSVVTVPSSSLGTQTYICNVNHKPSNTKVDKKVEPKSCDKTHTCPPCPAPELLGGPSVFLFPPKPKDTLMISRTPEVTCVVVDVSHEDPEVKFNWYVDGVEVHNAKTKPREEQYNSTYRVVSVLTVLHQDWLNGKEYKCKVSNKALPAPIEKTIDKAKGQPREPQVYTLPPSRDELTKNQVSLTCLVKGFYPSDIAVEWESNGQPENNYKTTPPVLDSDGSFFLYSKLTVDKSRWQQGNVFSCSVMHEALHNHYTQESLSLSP
# light: B1 light
# notes: Substitution in both H chains; position in EU numbering; also called S337D homodimerized antibody
# Target: T1, FcγRIIa H
# Test: SPR; He/Con_2aH divided by He/Con_2b (FcγRIIb)
# Method: The heterodimerized antibodies He Abs in which one of the H chains was introduced with an alteration were assayed for their binding activities to each activating FcγR and inhibitory FcγR according to the method described in Example 4. […] The activating FcγRs in FIGS. 26, 27, 28, and 29 are FcγRIa, FcγRIIa (R), FcγRIIa (H), and FcγRIIIa, respectively.
# Analysis of interaction between objective antibody and the FcγR was carried out using Biacore T100 (GE Healthcare). HBS-EP+ (GE Healthcare) was used as the running buffer, and the measurement temperature was set to 25° C. Chips produced by immobilizing the antigen peptide by the amine coupling method to a Series S Sencor Chip CM5 (GE Healthcare), or alternatively, chips produced by allowing preliminarily biotinylated antigen peptides to interact with and immobilize onto a Series S Sensor Chip SA (certified) (GE Healthcare) were used. Antibodies of interest were captured onto an antigen peptide-immobilized chip, and allowed to interact to each FcγR diluted with running buffer. To regenerate and repeatedly use the chip, the antibodies captured on the chip were washed off by reacting 10 mM glycine-HCl, pH 1.5.
row,He_2aH/2b (IIaH/IIb),Binder
1,0.27 ratio,B1
2,0.17 ratio,B2
3,0.45 ratio,B3
4,0.52 ratio,B4
5,0.37 ratio,B5
6,0.52 ratio,B6
7,0.28 ratio,B7
8,0.78 ratio,B8
9,0.66 ratio,B9
10,0.61 ratio,B10
11,0.73 ratio,B11

# Target: T1, FcγRIIa H
# Test: SPR (Biacore), relative binding vs GpH7-A5/GpH7-B3/GpL16-k0
row,He/Con_2aH,Binder
1,102 % of control He Ab (=100),B1
2,12 % of control He Ab (=100),B2
3,29.8 % of control He Ab (=100),B3
4,19.6 % of control He Ab (=100),B4
5,21.2 % of control He Ab (=100),B5
6,46.4 % of control He Ab (=100),B6
7,61.3 % of control He Ab (=100),B7
8,85 % of control He Ab (=100),B8
9,37.9 % of control He Ab (=100),B9
10,63.3 % of control He Ab (=100),B10
11,97.2 % of control He Ab (=100),B11

# Target: T2, FcγRIIb
# Test: as above
row,He/Con_2b,Binder
1,379 % of control He Ab (=100),B1
2,71.9 % of control He Ab (=100),B2
3,65.9 % of control He Ab (=100),B3
4,37.9 % of control He Ab (=100),B4
5,57.2 % of control He Ab (=100),B5
6,89.2 % of control He Ab (=100),B6
7,218 % of control He Ab (=100),B7
8,108 % of control He Ab (=100),B8
9,57.2 % of control He Ab (=100),B9
10,104 % of control He Ab (=100),B10
11,134 % of control He Ab (=100),B11

# Target: T3, FcγRIIb extracellular domain with …
# Test: SPR (Biacore), antibody captured on antigen-peptide chip, FcgRIIb as analyte; binding relative to GpH7-B3/GpL16-k0 (HoCon Ab) = 100
row,Ho/Con_2b,Binder
1,135 % of control,B12
2,128 % of control,B13
3,106 % of control,B14
4,327 % of control,B15
5,107 % of control,B16
6,126 % of control,B17
7,171 % of control,B18
8,115 % of control,B19
9,106 % of control,B20
10,213 % of control,B21
11,116 % of control,B22
